{
  "source": "paper PMC7714070",
  "about": "“The role of the cytoskeletal proteins MreB and FtsZ in multicellular cyanobacteria” (FEBS Open Bio, 2020)",
  "proteins": {"B1": {"name": "Polyhistidine tagged FtsZ from Anabaena sp. PCC 7120 (natural protein, UniProt P45482 1-428, looked up)", "chain": "MTLDNNQELTYRNSQSLGQPGFSLAVNSSNPFNHSGLNFGQNNDSKKISVENNRIGEIVPGRVANIKVIGVGGGGGNAVNRMIESDVSGVEFWSINTDAQALTLAGAPSRLQIGQKLTRGLGAGGNPAIGQKAAEESRDEIATALEGADLVFITAGMGGGTGTGAAPIVAEVAKEMGALTVGVVTRPFVFEGRRRTSQAEQGIEGLKSRVDTLIIIPNNKLLEVIPEQTPVQEAFRYADDVLRQGVQGISDIITIPGLVNVDFADVRAVMADAGSALMGIGVSSGKSRAREAAIAAISSPLLECSIEGARGVVFNITGGSDLTLHEVNAAAETIYEVVDPNANIIFGAVIDDRLQGEVRITVIATGFTGEIQAAPQQNAANARVVSAPPKRTPTQTPLTNSPAPTPEPKEKSGLDIPDFLQRRRPPKN", "modifications": "labelled with NHS-Fluorescein", "notes": "FtsZ of Anabaena sp; PCC 7120; also called FtsZAna-His; FtsZ-His; source: E. coli BL21 (DE3), purified (Ni-NTA)"}, "B2": {"name": "Polyhistidine tagged FtsZ from Fischerella muscicola PCC 7414 (natural protein, UniProt A0A2N6JXP9 1-430, looked up)", "chain": "MTLDNNQGLTYKNSQSPGQSTFSLAVNSTNPFNHSGLSFGQNNDSKKIEREETRIGDIVPGRVANIKVIGVGGGGSNAVNRMIASDVSGVEFWSINTDAQALTLAAAPSRLQIGQKLTRGLGAGGNPAIGTKAAEESRDEIATALDGADLVFITAGMGGGTGTGAAPIVAEVAKEMGALTVGVVTRPFIFEGRRRISQAEQGIEGLKSRVDTLIIIPNNKLLEVIPEQTPMQEAFRYADDVLRQGVQGISDIITIPGLINVDFADVRAVMADAGSALMGIGIGSGKSRAREAAIAAISSPLLECSIEGARGVVFNITGGSDLTLHEVNAAAETIYEVVDPNANIIFGAVIDDRLQGEVRLTVIATGFTGEAPAAQQSNVTQGRVVQPPPQRRPMQQPPAPNPPTQTPEPKEKGSVLDIPDFLRKRTPPRN", "modifications": "labelled with NHS-Fluorescein", "notes": "FtsZ of Fischerella muscicola PCC 7414; also called FtsZFm-His; FtsZ-His; source: E. coli BL21 (DE3), purified (Ni-NTA)"}},
  "biological_target": "the molecule itself",
  "assay": "in vitro polymerisation seen by epifluorescence microscopy; Ni-NTA-purified FtsZ-His labelled with NHS-Fluorescein, in FtsZ polymerization buffer (50 mM MES, 50 mM KCl, 10 mM MgCl2, 2 mM GTP, pH 6.5), 40 min at 30 °C",
  "data": [
    {"protein": "B1", "values": [
      {"measurement": "binding result", "value": "binds"}
    ]},
    {"protein": "B2", "values": [
      {"measurement": "binding result", "value": "binds"}
    ]}
  ]
}
